Non-standard residues stand in square brackets, D forms with d. Phe(4-NO2) = N[C@@H](Cc1ccc([N+](=O)[O-])cc1)C(=O)O
Target: T1, acceptor hexapeptide Ac-DQNATF{4NO2}-NH2 (SMILES CC(=O)N[C@@H](CC(=O)O)C(=O)N[C@@H](CCC(N)=O)C(=O)N[C@@H](CC(N)=O)C(=O)N[C@@H](C)C(=O)N[C@H](C(=O)N[C@@H](Cc1ccc([N+](=O)[O-])cc1)C(N)=O)[C@@H](C)O)
T1 construct: also called DQNATF{pNO2}; acceptor peptide
T1 peptide: Ac-DQNAT[Phe(4-NO2)]-NH2
Assay: calculated from the X-ray co-crystal structure with areaimol

B1: oligosaccharyltransferase (OST) PgIB from Campylobacter lari, full length, with C-terminal decahistidine affinity tag (expressed from pSF2, purified in DDM and … (enzyme)
chain: MELQQNFTDNNSIKYTCILILIAFAFSVLCRLYWVAWASEFYEFFFNDQLMITTNDGYAFAEGARDMIAGFHQPNDLSYFGSSLSTLTYWLYSILPFSFESIILYMSTFFASLIVVPIILIAREYKLTTYGFIAALLGSIANSYYNRTMSGYYDTDMLVLVLPMLILLTFIRLTINKDIFTLLLSPIFIMIYLWWYPSSYSLNFAMIGLFGLYTLVFHRKEKIFYLAIALMIIALSMLAWQYKLALIVLLFAIFAFKEEKINFYMIWALIFISISILHLSGGLDPVLYQLKFYVFKASDVQNLKDAAFMYFNVNETIMEVNTIDPEVFMQRISSSVLVFILSFIGFILLCKDHKSMLLALPMLALGFMALRAGLRFTIYAVPVMALGFGYFLYAFFNFLEKKQIKLSLRNKNILLILIAFFSISPALMHIYYYKSSTVFTSYEASILNDLKNKAQREDYVVAWWDYGYPIRYYSDVKTLIDGGKHLGKDNFFSSFVLSKEQIPAANMARLSVEYTEKSFKENYPDVLKAMVKDYNQTSAKDFLESLNDKNFKFDTNKTRDVYIYMPYRMLRIMPVVAQFANTNPDNGEQEKSLFFSQANAIAQDKTTGSVMLDNGVEIINDFRALKVEGASIPLKAFVDIESITNGKFYYNEIDSKAQIYLLFLREYKSFVILDESLYNSAYIQMFLLNQYDQDLFEQVTNDTRAKIYRLKR
notes: Residues 283-306, 605-607 and the His tag are disordered in the structure; also called C. lari PgIB; PglB
- contact surface of the peptide buried at the interface of the TM and periplasmic domains: ~80%

From patent publication US20140100836A1 (ETH ZURICH, published 2014)
